This data set relates to C[C@@H](O)[C@H]1C(=O)N2C(C(=O)O)=C([C@H]3CCCO3)S[C@H]12. The data set is described as follows: purified protein. Particulars: two Zn2+ ions active site.

Take VIM-2 (Pseudomonas aeruginosa): the Km was found to be 5.11 µM, the kcat came out at 36.7 s⁻¹ and the kcat/Km turned out to be 7.17e+06 M⁻¹ s⁻¹.
